Laboratory results as given in patent publication US20180264110A1.

Tests used:
[1] = target: BTLA overexpressed on 293T cells (human) (UniProt Q7Z6A9); assay: FACS, 293T cells overexpressing BTLA; secondary antibody alone (background control)
[2] = target: BTLA overexpressed on 293T cells (human) (UniProt Q7Z6A9); assay: FACS, 293T cells overexpressing BTLA

Chain of BTLA overexpressed on 293T cells (human) (Q7Z6A9 31-289 limits assumed): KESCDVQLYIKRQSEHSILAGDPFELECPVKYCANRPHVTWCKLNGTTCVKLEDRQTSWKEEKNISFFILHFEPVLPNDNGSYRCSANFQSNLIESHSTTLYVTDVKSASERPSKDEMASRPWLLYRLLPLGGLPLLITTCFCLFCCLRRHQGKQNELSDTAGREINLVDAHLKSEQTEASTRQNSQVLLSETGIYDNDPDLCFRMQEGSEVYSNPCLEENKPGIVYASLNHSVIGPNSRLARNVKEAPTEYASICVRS

| % Gate [1] [%] | MR [1] | % Gate [2] [%] | MR [2] | Substance |
| --- | --- | --- | --- | --- |
| 10.1 | 16.6 | – | – | 2′Ab only (antibody) |
| – | – | 91.3 | 2850 | BTLA (MIH26) (antibody) |
| – | – | 5.08 | 11.7 | Isotype (antibody) |
